According to article PMC12767022:

Target: MBP‐Spz, maltose‐binding protein‐tagged Spz (Drosophila melanogaster) (UniProt P48607)
Chain of UniProt P48607 (P48607 26-326): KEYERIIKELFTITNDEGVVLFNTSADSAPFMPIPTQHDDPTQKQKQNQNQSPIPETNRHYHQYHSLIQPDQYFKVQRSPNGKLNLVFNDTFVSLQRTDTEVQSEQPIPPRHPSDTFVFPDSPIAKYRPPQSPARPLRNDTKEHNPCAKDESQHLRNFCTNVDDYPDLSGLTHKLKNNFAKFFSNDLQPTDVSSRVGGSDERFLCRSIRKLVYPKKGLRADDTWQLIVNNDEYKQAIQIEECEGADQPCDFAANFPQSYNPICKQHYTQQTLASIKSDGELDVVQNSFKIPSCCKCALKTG

**Q.** “GST‐ETS1, glutathione S‐transferase‐tagged ETS1 (enzyme)” was tested. Which degradation of Spz by purified ETS1 (SDS‐PAGE band intensity, 0–4 h, 1 mM each CoCl2 and CaCl2): about half within 1 h, 80% after 4 h did it give?
**A.** 80%
